In patent US20240209076A1 (KODIAK SCIENCES, published 2024) one finds koff data, which are given here for 21 molecules.

The chains are these.
B1: anti-IL-6 Fab, heavy chain S61A (Fab, V domains shown)
VH: EVQLVESGGGLVQPGGSLRLSCAASGFTFSPFAMSWVRQAPGKGLEWVAKISPGGSWTYYADTVTGRFTFSLDTSKSTAYLQMNSLRAEDTAVYYCARQLWGYYALDIWGQGTLVTVSS
VL: DIQLTQSPSSLSASVGDRVTITCSASISVSYMYWYQQKPGKAPKLLIYDMSNLASGVPSRFSGSGSGTDFTLTISSLQPEDFATYYCMQWSGYPYTFGQGTKVEIK
notes: see m39
B2: anti-IL-6 Fab, heavy chain T65G (Fab, V domains shown)
VH: EVQLVESGGGLVQPGGSLRLSCAASGFTFSPFAMSWVRQAPGKGLEWVAKISPGGSWTYYSDTVGGRFTFSLDTSKSTAYLQMNSLRAEDTAVYYCARQLWGYYALDIWGQGTLVTVSS
VL: DIQLTQSPSSLSASVGDRVTITCSASISVSYMYWYQQKPGKAPKLLIYDMSNLASGVPSRFSGSGSGTDFTLTISSLQPEDFATYYCMQWSGYPYTFGQGTKVEIK
notes: see m39
B3: anti-IL-6 Fab, heavy chain T63E (Fab, V domains shown)
VH: EVQLVESGGGLVQPGGSLRLSCAASGFTFSPFAMSWVRQAPGKGLEWVAKISPGGSWTYYSDEVTGRFTFSLDTSKSTAYLQMNSLRAEDTAVYYCARQLWGYYALDIWGQGTLVTVSS
VL: DIQLTQSPSSLSASVGDRVTITCSASISVSYMYWYQQKPGKAPKLLIYDMSNLASGVPSRFSGSGSGTDFTLTISSLQPEDFATYYCMQWSGYPYTFGQGTKVEIK
notes: see m39
B4: anti-IL-6 Fab, heavy chain T28Y (Fab, V domains shown)
VH: EVQLVESGGGLVQPGGSLRLSCAASGFYFSPFAMSWVRQAPGKGLEWVAKISPGGSWTYYSDTVTGRFTFSLDTSKSTAYLQMNSLRAEDTAVYYCARQLWGYYALDIWGQGTLVTVSS
VL: DIQLTQSPSSLSASVGDRVTITCSASISVSYMYWYQQKPGKAPKLLIYDMSNLASGVPSRFSGSGSGTDFTLTISSLQPEDFATYYCMQWSGYPYTFGQGTKVEIK
notes: see m39
B5: anti-IL-6 Fab, heavy chain T28K (Fab, V domains shown)
VH: EVQLVESGGGLVQPGGSLRLSCAASGFKFSPFAMSWVRQAPGKGLEWVAKISPGGSWTYYSDTVTGRFTFSLDTSKSTAYLQMNSLRAEDTAVYYCARQLWGYYALDIWGQGTLVTVSS
VL: DIQLTQSPSSLSASVGDRVTITCSASISVSYMYWYQQKPGKAPKLLIYDMSNLASGVPSRFSGSGSGTDFTLTISSLQPEDFATYYCMQWSGYPYTFGQGTKVEIK
notes: see m39
B6: anti-IL-6 Fab, heavy chain S61K (Fab, V domains shown)
VH: EVQLVESGGGLVQPGGSLRLSCAASGFTFSPFAMSWVRQAPGKGLEWVAKISPGGSWTYYKDTVTGRFTFSLDTSKSTAYLQMNSLRAEDTAVYYCARQLWGYYALDIWGQGTLVTVSS
VL: DIQLTQSPSSLSASVGDRVTITCSASISVSYMYWYQQKPGKAPKLLIYDMSNLASGVPSRFSGSGSGTDFTLTISSLQPEDFATYYCMQWSGYPYTFGQGTKVEIK
notes: see m39
B7: anti-IL-6 Fab, heavy chain T63Q (Fab, V domains shown)
VH: EVQLVESGGGLVQPGGSLRLSCAASGFTFSPFAMSWVRQAPGKGLEWVAKISPGGSWTYYSDQVTGRFTFSLDTSKSTAYLQMNSLRAEDTAVYYCARQLWGYYALDIWGQGTLVTVSS
VL: DIQLTQSPSSLSASVGDRVTITCSASISVSYMYWYQQKPGKAPKLLIYDMSNLASGVPSRFSGSGSGTDFTLTISSLQPEDFATYYCMQWSGYPYTFGQGTKVEIK
notes: see m39
B8: anti-IL-6 Fab, heavy chain T65Y (Fab, V domains shown)
VH: EVQLVESGGGLVQPGGSLRLSCAASGFTFSPFAMSWVRQAPGKGLEWVAKISPGGSWTYYSDTVYGRFTFSLDTSKSTAYLQMNSLRAEDTAVYYCARQLWGYYALDIWGQGTLVTVSS
VL: DIQLTQSPSSLSASVGDRVTITCSASISVSYMYWYQQKPGKAPKLLIYDMSNLASGVPSRFSGSGSGTDFTLTISSLQPEDFATYYCMQWSGYPYTFGQGTKVEIK
notes: see m39
B9: anti-IL-6 Fab, heavy chain T63G (Fab, V domains shown)
VH: EVQLVESGGGLVQPGGSLRLSCAASGFTFSPFAMSWVRQAPGKGLEWVAKISPGGSWTYYSDGVTGRFTFSLDTSKSTAYLQMNSLRAEDTAVYYCARQLWGYYALDIWGQGTLVTVSS
VL: DIQLTQSPSSLSASVGDRVTITCSASISVSYMYWYQQKPGKAPKLLIYDMSNLASGVPSRFSGSGSGTDFTLTISSLQPEDFATYYCMQWSGYPYTFGQGTKVEIK
notes: see m39
B10: anti-IL-6 Fab, heavy chain T65A (Fab, V domains shown)
VH: EVQLVESGGGLVQPGGSLRLSCAASGFTFSPFAMSWVRQAPGKGLEWVAKISPGGSWTYYSDTVAGRFTFSLDTSKSTAYLQMNSLRAEDTAVYYCARQLWGYYALDIWGQGTLVTVSS
VL: DIQLTQSPSSLSASVGDRVTITCSASISVSYMYWYQQKPGKAPKLLIYDMSNLASGVPSRFSGSGSGTDFTLTISSLQPEDFATYYCMQWSGYPYTFGQGTKVEIK
notes: see m39
B11: anti-IL-6 Fab, heavy chain T58R (Fab, V domains shown)
VH: EVQLVESGGGLVQPGGSLRLSCAASGFTFSPFAMSWVRQAPGKGLEWVAKISPGGSWRYYSDTVTGRFTFSLDTSKSTAYLQMNSLRAEDTAVYYCARQLWGYYALDIWGQGTLVTVSS
VL: DIQLTQSPSSLSASVGDRVTITCSASISVSYMYWYQQKPGKAPKLLIYDMSNLASGVPSRFSGSGSGTDFTLTISSLQPEDFATYYCMQWSGYPYTFGQGTKVEIK
notes: see m39
B12: anti-IL-6 Fab, heavy chain S61R (Fab, V domains shown)
VH: EVQLVESGGGLVQPGGSLRLSCAASGFTFSPFAMSWVRQAPGKGLEWVAKISPGGSWTYYRDTVTGRFTFSLDTSKSTAYLQMNSLRAEDTAVYYCARQLWGYYALDIWGQGTLVTVSS
VL: DIQLTQSPSSLSASVGDRVTITCSASISVSYMYWYQQKPGKAPKLLIYDMSNLASGVPSRFSGSGSGTDFTLTISSLQPEDFATYYCMQWSGYPYTFGQGTKVEIK
notes: see m39
B13: anti-IL-6 Fab, heavy chain T58V (Fab, V domains shown)
VH: EVQLVESGGGLVQPGGSLRLSCAASGFTFSPFAMSWVRQAPGKGLEWVAKISPGGSWVYYSDTVTGRFTFSLDTSKSTAYLQMNSLRAEDTAVYYCARQLWGYYALDIWGQGTLVTVSS
VL: DIQLTQSPSSLSASVGDRVTITCSASISVSYMYWYQQKPGKAPKLLIYDMSNLASGVPSRFSGSGSGTDFTLTISSLQPEDFATYYCMQWSGYPYTFGQGTKVEIK
notes: see m39
B14: anti-IL-6 Fab, heavy chain T28A (Fab, V domains shown)
VH: EVQLVESGGGLVQPGGSLRLSCAASGFAFSPFAMSWVRQAPGKGLEWVAKISPGGSWTYYSDTVTGRFTFSLDTSKSTAYLQMNSLRAEDTAVYYCARQLWGYYALDIWGQGTLVTVSS
VL: DIQLTQSPSSLSASVGDRVTITCSASISVSYMYWYQQKPGKAPKLLIYDMSNLASGVPSRFSGSGSGTDFTLTISSLQPEDFATYYCMQWSGYPYTFGQGTKVEIK
notes: see m39
B15: anti-IL-6 Fab, heavy chain T65D (Fab, V domains shown)
VH: EVQLVESGGGLVQPGGSLRLSCAASGFTFSPFAMSWVRQAPGKGLEWVAKISPGGSWTYYSDTVDGRFTFSLDTSKSTAYLQMNSLRAEDTAVYYCARQLWGYYALDIWGQGTLVTVSS
VL: DIQLTQSPSSLSASVGDRVTITCSASISVSYMYWYQQKPGKAPKLLIYDMSNLASGVPSRFSGSGSGTDFTLTISSLQPEDFATYYCMQWSGYPYTFGQGTKVEIK
notes: see m39
B16: anti-IL-6 Fab, heavy chain T65L (Fab, V domains shown)
VH: EVQLVESGGGLVQPGGSLRLSCAASGFTFSPFAMSWVRQAPGKGLEWVAKISPGGSWTYYSDTVLGRFTFSLDTSKSTAYLQMNSLRAEDTAVYYCARQLWGYYALDIWGQGTLVTVSS
VL: DIQLTQSPSSLSASVGDRVTITCSASISVSYMYWYQQKPGKAPKLLIYDMSNLASGVPSRFSGSGSGTDFTLTISSLQPEDFATYYCMQWSGYPYTFGQGTKVEIK
notes: see m39
B17: anti-IL-6 Fab, heavy chain T63K (Fab, V domains shown)
VH: EVQLVESGGGLVQPGGSLRLSCAASGFTFSPFAMSWVRQAPGKGLEWVAKISPGGSWTYYSDKVTGRFTFSLDTSKSTAYLQMNSLRAEDTAVYYCARQLWGYYALDIWGQGTLVTVSS
VL: DIQLTQSPSSLSASVGDRVTITCSASISVSYMYWYQQKPGKAPKLLIYDMSNLASGVPSRFSGSGSGTDFTLTISSLQPEDFATYYCMQWSGYPYTFGQGTKVEIK
notes: see m39
B18: anti-IL-6 Fab, heavy chain T58K (Fab, V domains shown)
VH: EVQLVESGGGLVQPGGSLRLSCAASGFTFSPFAMSWVRQAPGKGLEWVAKISPGGSWKYYSDTVTGRFTFSLDTSKSTAYLQMNSLRAEDTAVYYCARQLWGYYALDIWGQGTLVTVSS
VL: DIQLTQSPSSLSASVGDRVTITCSASISVSYMYWYQQKPGKAPKLLIYDMSNLASGVPSRFSGSGSGTDFTLTISSLQPEDFATYYCMQWSGYPYTFGQGTKVEIK
notes: see m39
B19: anti-IL-6 Fab, heavy chain T65I (Fab, V domains shown)
VH: EVQLVESGGGLVQPGGSLRLSCAASGFTFSPFAMSWVRQAPGKGLEWVAKISPGGSWTYYSDTVIGRFTFSLDTSKSTAYLQMNSLRAEDTAVYYCARQLWGYYALDIWGQGTLVTVSS
VL: DIQLTQSPSSLSASVGDRVTITCSASISVSYMYWYQQKPGKAPKLLIYDMSNLASGVPSRFSGSGSGTDFTLTISSLQPEDFATYYCMQWSGYPYTFGQGTKVEIK
notes: see m39
B20: anti-IL-6 Fab, heavy chain T28E (Fab, V domains shown)
VH: EVQLVESGGGLVQPGGSLRLSCAASGFEFSPFAMSWVRQAPGKGLEWVAKISPGGSWTYYSDTVTGRFTFSLDTSKSTAYLQMNSLRAEDTAVYYCARQLWGYYALDIWGQGTLVTVSS
VL: DIQLTQSPSSLSASVGDRVTITCSASISVSYMYWYQQKPGKAPKLLIYDMSNLASGVPSRFSGSGSGTDFTLTISSLQPEDFATYYCMQWSGYPYTFGQGTKVEIK
notes: see m39
B21: anti-IL-6 Fab, heavy chain T63D (Fab, V domains shown)
VH: EVQLVESGGGLVQPGGSLRLSCAASGFTFSPFAMSWVRQAPGKGLEWVAKISPGGSWTYYSDDVTGRFTFSLDTSKSTAYLQMNSLRAEDTAVYYCARQLWGYYALDIWGQGTLVTVSS
VL: DIQLTQSPSSLSASVGDRVTITCSASISVSYMYWYQQKPGKAPKLLIYDMSNLASGVPSRFSGSGSGTDFTLTISSLQPEDFATYYCMQWSGYPYTFGQGTKVEIK
notes: see m39

Chain of recombinant human IL-6 (P05231 30-212 limits assumed): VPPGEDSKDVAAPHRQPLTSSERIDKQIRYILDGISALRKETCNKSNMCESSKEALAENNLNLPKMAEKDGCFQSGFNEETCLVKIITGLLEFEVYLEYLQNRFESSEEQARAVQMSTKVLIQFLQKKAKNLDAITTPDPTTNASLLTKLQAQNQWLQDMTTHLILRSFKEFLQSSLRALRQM

The target in this assay is recombinant human IL-6 (human, UniProt P05231 30-212). Nature of the assay: SPR, IL-6 on CM5 chip, Fab lysate, 25 C. Here is the method:
Three ranges of antigen density (100-150 RU, 300-400 RU, 400-600 RU) were obtained by using variable flow times for each chip channel, later blocked with ethanolamine. Supernatants of the 96-well filtered culture lysates were injected at 50 μL/min for 120 seconds. Fitting of dissociation curves (300 seconds) to single exponential decay curve was used for the determination of dissociation rates (koff). Chip surfaces were regenerated with 10 mM Glycine pH 1.7 solution injected at 50 μL/min during 60 seconds after every cycle of sample binding and dissociation.
Turning to B1, the koff is 0.00604 s⁻¹.
Take B2: the koff was found to be 0.0057 s⁻¹.
To B3 belongs 5.53e-05 s⁻¹; to B4, 0.0039 s⁻¹.
For the molecule B5, the dissociation rate constant (koff) amounted to 0.00408 s⁻¹.
For B6, the koff came to 0.00558 s⁻¹.
For the molecule B7, the koff was determined as 0.0057 s⁻¹.
Regarding B8, the koff is 0.00574 s⁻¹.
As to B9, the koff worked out at 0.0539 s⁻¹.
In the case of B10 it was 0.00615 s⁻¹.
As for B11, the koff was found to be 0.00425 s⁻¹.
In the case of B12, the koff amounted to 0.00585 s⁻¹.
For B13, the koff came out at 0.0562 s⁻¹.
As to B14, the koff turned out to be 0.00396 s⁻¹.
With B15, the koff was 0.00614 s⁻¹.
In the case of B16 it was 0.00592 s⁻¹; in that of B17, 0.00611 s⁻¹.
Consider B18, for which the koff was 0.00492 s⁻¹.
For the molecule B19, the koff amounted to 0.00615 s⁻¹.
In the case of B20 it was 0.00428 s⁻¹.
As for B21, the koff stood at 0.00603 s⁻¹.
